Test results published in patent US20220204627A1 (WILLIAM ROBERT ARATHOON LIVING TRUST DATED AUGUST 29 2016, published 2022).
Numbering of substitutions follows the chain as printed. Numbers in names are those of the source. Each block holds one binder with its values, some of them ahead of it.

What was measured:
[1] = biological target: T1, human P Glycoprotein (Pgp) / Multidrug resistance protein 1 (MDR1), gene ABCB1, on cells (human, UniProt P08183 1-1280); assay: flow cytometry on 293T cells stably expressing human ABCB1 (293T_ABCB1_OX; the cells also carry CD47); 293T_ABCB1_OX cells: Pgp overexpressed, CD47 also present
T1 construct: also called KPB1; KBP1

[2] = biological target: T1, human P Glycoprotein (Pgp) / Multidrug …; assay: cell-based or functional assay
[3] = biological target: T2, human CD47-Fc fusion protein (R&D systems) (human, UniProt Q08722 19-141); assay: ELISA, binding to CD47; design: Bmax: unit not given here
T2 construct: Bought (R&D systems); also called Fc-tagged CD47; not shown: Fc part of the bought fusion protein

[4] = biological target: T2, human CD47-Fc fusion protein (R&D …); assay: ELISA, plate coated with human CD47-Fc; design: Bmax: unit not given here
[5] = biological target: T3, cynomolgus CD47 on erythrocytes (cynomolgus, UniProt A0A5F8AK49 19-323 (rhesus entry)); assay: flow cytometry on cynomolgus red blood cells (cy807 RBC), Alexa Fluor 647 channel
T3 construct: whole, on cells; also called cynomolgus RBCs

[6] = biological target: T4, human CD47 on cells (human, UniProt Q08722 19-323); assay: flow cytometry on human red blood cells (h408 RBC), Alexa Fluor 647 channel
T4 construct: also called KT14 (target name); leukocyte surface antigen CD47

[7] = biological target: T2, human CD47-Fc fusion protein (R&D …); assay: ELISA, Fc-tagged CD47 coated on the plate
[8] = biological target: T1, human P Glycoprotein (Pgp) / Multidrug …; assay: FACS on 293T-B1OX cells (overexpressing MDR1)
[9] = biological target: T5, EGFR on 293T cells overexpressing EGFR (UniProt P00533 25-1210, limits assumed); assay: FACS on 293T-EGFR OX cells
T5 construct: whole, on cells

[10] = biological target: T1, human P Glycoprotein (Pgp) / Multidrug …; assay: flow cytometry on 293T cells stably expressing human ABCB1 (293T_ABCB1_OX; the cells also carry CD47)
[11] = biological target: T1, human P Glycoprotein (Pgp) / Multidrug …; assay: flow cytometry on 293T cells stably expressing human ABCB1 (293T_ABCB1_OX)
[12] = biological target: T2, human CD47-Fc fusion protein (R&D …); assay: ELISA, binding to CD47; 15D3 HC with its own 15D3 LC (un-swapped control); ELISA
[13] = biological target: T2, human CD47-Fc fusion protein (R&D …); assay: ELISA, plate coated with human CD47-Fc
[14] = biological target: T2, human CD47-Fc fusion protein (R&D …); assay: ELISA, binding to CD47
[15] = biological target: T1, human P Glycoprotein (Pgp) / Multidrug …; assay: FACS on 293T cells overexpressing MDR1 (column MDR1 FACS)

EC50 [1]: 75.5 nM
Vincristine IC50 (nM) on N6/ADR cells with antibody at 50 ug/mL [2]: 0.002 nM
B1: Ab1 (15D3 IgG1 DD / KT14 IgG1 KK / MRK16 VL-Hz1) (bispecific antibody, V domains shown)
VH 1: EVKVVESGGVLVRPGGSLKLSCAASGFTFSRYTMSWVRQTPEKRLEWVATISSGGGNTYYPDSVKGRFTVSRDNAMSSLYLQMSSLRSEDTALYYCARYGAGDAWFAYWGQGTLVTVSA
VH 2: QVQLVQSGAEVKKPGASVKVSCKASGYTFTNYNMHWVRQAPGQRLEWMGTIYPGNDDTSYNQKFKDRVTITADTSASTAYMELSSLRSEDTAVYYCARGGYRAMDYWGQGTLVTVSS
VL: DIVMTQTPLSSPVTLGQPASISCRSSQSIVHSTGQTYLEWYQQRPGQPPRLLIYKISNRFSGVPDRFSGSGAGTDFTLKISRVEAEDVGVYYCFQASHFPRTFGQGTKLEIK
notes: Human IgG1 heavy chains with DD (K392D, K409D) on the 15D3 arm and KK (E356K, D399K) on the KT14 (5F9) arm; kappa light chain

Bmax [3]: 3.1
Kd [3]: 252 nM
B2: 15D3/5F9 (15D3 heavy chain with 5F9 light chain) (antibody, human IgG1, V domains shown)
VH: B1 VH 1
VL: DIVMTQSPLSLPVTPGEPASISCRSSQSIVYSNGNTYLGWYLQKPGQSPQLLIYKVSNRFSGVPDRFSGSGSGTDFTLKISRVEADVGVYYCFQGSHVPYTFGQGTKLEIK
notes: Light chain shuffle construct; human IgG1 / kappa constant regions

Bmax [4]: 3.08
Kd [4]: 6.3 nM
B3: 5F9/UIC2 (5F9 heavy chain with UIC2 light chain) (antibody, human IgG1, V domains shown)
VH: B1 VH 2
VL: DVVMTQTPRSLPVSLGDQASISCRSSQSLLHSNGNTYLHWYLQKPGQSPKLLIYKVSNRFSGVPDRFSGSGSGTDFTLKISRVEAEDLGVYFCSQSTHIPPWTFGGGTKLDIK
notes: as for B2

R4 (percent of red blood cells in the positive gate R4) [5]: 0.483%
binding result [5]: no binding
R4 (percent of red blood cells in the positive gate R4) [6]: 0.609%
Kd [7]: 145 nM
EC50 [1]: 40.3 nM
Vincristine IC50 (nM) on N6/ADR cells with antibody at 50 ug/mL [2]: 0.0461 nM
B4: KBisP1.1 bispecific antibody (15D3 IgG1 DD/5F9 IgG1 KK/MRK16) (bispecific antibody, V domains shown)
VH 1: B1 VH 1
VH 2: B1 VH 2
VL: DVLMTQTPVSLSVSLGDQASISCRSSQSIVHSTGNTYLEWYLQKPGQSPKLLIYKISNRFSGVPDRFSGSGSGTDFTLKISRVEAEDLGVYYCFQASHFPRTFGGGTKLEIK
notes: 15D3 VH on human IgG1 with K392D and K409D (DD), 5F9 VH on human IgG1 with E356K and D399K (KK), EU numbering; also called KNJYBisP1.1; KBis1.1

Bmax [4]: 4.22
Kd [4]: 1510 nM
B5: 5F9/M89 (5F9 heavy chain with M89 light chain) (antibody, human IgG1, V domains shown)
VH: B1 VH 2
VL: EIVLTQSPATLSLSPGERATLSCRASQSVGGSYLAWYQQKPGQAPRLLIYGASRRATGIPARFSGSGSGTDFTLTISSLQPEDFASYFCQQTNTFPLTFGGGTKVEIK
notes: as for B2

Bmax [3]: 3.45
Kd [3]: 169 nM
B6: 15D3/UIC2 (15D3 heavy chain with UIC2 light chain) (antibody, human IgG1, V domains shown)
VH: B1 VH 1
VL: B3 VL
notes: as for B2

EC50 [8]: 33.1 nM
EC50 [9]: 110 nM
B7: 15D3 DD HC::necitumumab KK HC::MRK16 LC (bispecific antibody, IgG1, V domains shown)
VH 1: B1 VH 1
VH 2: QVQLQESGPGLVKPSQTLSLICTVSGGSISSGDYYWSWIRQPPGKGLEWIGYIYYSGSTDYNPSLKSRVTMSVDTSKNQFSLKVNSVTAADTAVYYCARVSIFGVGTFDYWGQGTLVTVSS
VL: B4 VL
notes: DD = K392D and K409D, KK = E356K and D399K (EU) in the IgG1 heavy chains; common light chain; also called 15D3DD: necitumumab KK:MRK16; KT3-2KK 15D3DD 1MRK16

EC50 [10]: 137 nM
Vincristine IC50 (nM) on N6/ADR cells with antibody at 50 ug/mL [2]: 0.0589 nM
B8: Ab5 (15D3 HC-Hz1 DD hIgG1 / KT14 IgG1 KK / MRK16 VL-Hz1) (bispecific antibody, V domains shown)
VH 1: EVQLVESGGVVVQPGGSLRLSCAASGFTFSRYTMSWVRQAPGKGLEWVATISSGGGQTYYPDSVKGRFTVSRDNSKNSLYLQMNSLRTEDTALYYCARYGAGDAWFAYWGQGTLVTVSS
VH 2: B1 VH 2
VL: B1 VL
notes: Human IgG1 heavy chains with DD on the 15D3 arm and KK on the KT14 (5F9) arm; kappa light chain

EC50 [8]: 25.1 nM
EC50 [11]: 14.6 nM
Kd [12]: 10.9 nM
Bmax [3]: 3.2
Vincristine IC50 (nM) on N6/ADR cells with antibody at 50 ug/mL [2]: 0.466 nM
B9: anti-MDR1 antibody 15D3 (recombinant, human IgG1/Kappa) (antibody, V domains shown)
VH: B1 VH 1
VL: B4 VL with V9L, S12P, I56V, V83L, A96G, K108R
notes: also called 15D3/15D3

Bmax [4]: 2.96
Kd [4]: 0.257 nM
B10: 5F9/15D3 (5F9 heavy chain with 15D3 light chain) (antibody, human IgG1, V domains shown)
VH: B1 VH 2
VL: B4 VL with V9L, S12P, I56V, V83L, A96G, K108R
notes: as for B2

R4 (percent of red blood cells in the positive gate R4) [5]: 0.717%
binding result [5]: no binding
R4 (percent of red blood cells in the positive gate R4) [6]: 0.708%
fold decrease in affinity against the un-swapped 5F9 control [13]: 100 fold
Bmax [4]: 2.94
Kd [4]: 0.17 nM
B11: 5F9/MRK16 (anti-CD47 antibody with two 5F9 heavy chains and two MRK16 light chains) (antibody, human IgG1, V domains shown)
VH: B1 VH 2
VL: B4 VL
notes: Human IgG1 / kappa constant regions; also called KT14/MRK16 monoclonal; KT14_MRK16

fold decrease in affinity against the un-swapped 15D3 control [14]: ~20 fold
Bmax [3]: 3.94
Kd [3]: 229 nM
B12: 15D3/MRK16 (anti-MDR1 antibody with two 15D3 heavy chains and two MRK16 light chains) (antibody, human IgG1, V domains shown)
VH: B1 VH 1
VL: B4 VL
notes: Human IgG1 / kappa constant regions; also called 15D3/MRK16 monoclonal; a15D3:MRK16 antibody

R4 (percent of red blood cells in the positive gate R4) [5]: 0.801%
binding result [5]: no binding
R4 (percent of red blood cells in the positive gate R4) [6]: 0.867%
binding result [6]: no binding
EC50 [8]: 58.8 nM
Vincristine IC50 (nM) on N6/ADR cells with antibody at 50 ug/mL [2]: 0.734 nM
B13: anti-MDR1 antibody MRK16 (recombinant, human IgG1/Kappa) (antibody, V domains shown)
VH: EVILVESGGGLVKPGGSLKLSCAASGFTFSSYTMSWVRQTPEKRLEWVATISSGGGNTYYPDSVKGRFTISRDNAKNNLYLQMSSLRSEDTALYYCARYYRYEAWFASWGQGTLVTVSA
VL: B4 VL

binding result [15]: no binding
B14: UIC2 DD HC::cetuximab KK HC::MRK16 LC (bispecific antibody, V domains shown)
VH 1: AVQLQQSGPELVKTGASVKISCKASGYSFSNYYIHWVKQSHGKSLEWIGFISCYNGATFYNQKFKGKATFTVDTSSSTAYMKFNSLTFEDSAVYYCARLPIQFGNFYPMDYWGQGTSVTVSS
VH 2: not shown
VL: B4 VL
notes: DD / KK charge pair substitutions in the IgG1 heavy chains; common light chain

Kd [7]: 1620 nM
B15: 15D3 IgG1 KK/5F9 IgG1 DD/UIC2 (bispecific antibody)
chain 1: not shown
chain 2: not shown
chain 3: DVVMTQTPRSLPVSLGDQASISCRSSQSLLHSNGNTYLHWYLQKPGQSPKLLIYKVSNRFSGVPDRFSGSGSGTDFTLKISRVEAEDLGVYFCSQSTHIPPWTFGGGTKLDIKRTVAAPSVFIFPPSDEQLKSGTASVVCLLNNFYPREAKVQWKVDNALQSGNSQESVTEQDSKDSTYSLSSTLTLSKADYEKHKVYACEVTHQGLSSPVTKSFNRGEC
